To fix the notation:
B1: unnamed (parent)
chain 1: TIEALFQ
chain 2: not shown

Variants of B1 are the subject of this experiment. Kind of experiment: ITC. The settings on record: with partner chain of the complex shown.
In the case of chain 1 T1A, the Kd (in general, the equilibrium constant for the complex coming apart) worked out at 17 µM.

Source of the values: paper PMC9394474.
